Laboratory results published in patent US20120114652A1 (AbbVie / Abbott, published 2012).

Assays:
[1] = target: T1, R271S stable mutant human PAI-1 (human, UniProt P05121 24-402); test: SPR BIAcore 2000, Antibody 08 on CM5 chip, PAI-1 protein as analyte
T1 construct: His-tagged, expressed in E. coli
T1 chain: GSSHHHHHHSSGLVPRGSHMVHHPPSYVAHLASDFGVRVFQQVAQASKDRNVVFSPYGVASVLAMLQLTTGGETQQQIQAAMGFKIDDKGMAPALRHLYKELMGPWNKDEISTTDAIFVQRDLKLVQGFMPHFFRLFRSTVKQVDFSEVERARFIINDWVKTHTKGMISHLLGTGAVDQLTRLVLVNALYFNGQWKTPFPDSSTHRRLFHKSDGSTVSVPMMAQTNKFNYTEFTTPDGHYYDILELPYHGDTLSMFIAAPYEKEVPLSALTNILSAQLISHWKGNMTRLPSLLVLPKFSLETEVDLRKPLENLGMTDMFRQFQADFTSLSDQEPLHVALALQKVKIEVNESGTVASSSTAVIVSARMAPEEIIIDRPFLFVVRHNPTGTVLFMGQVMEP

[2] = target: T2, Y220S T267K stable mutant human PAI-1 (human, UniProt P05121 24-402); test: as above
T2 construct: His-tagged, expressed in E. coli
T2 chain: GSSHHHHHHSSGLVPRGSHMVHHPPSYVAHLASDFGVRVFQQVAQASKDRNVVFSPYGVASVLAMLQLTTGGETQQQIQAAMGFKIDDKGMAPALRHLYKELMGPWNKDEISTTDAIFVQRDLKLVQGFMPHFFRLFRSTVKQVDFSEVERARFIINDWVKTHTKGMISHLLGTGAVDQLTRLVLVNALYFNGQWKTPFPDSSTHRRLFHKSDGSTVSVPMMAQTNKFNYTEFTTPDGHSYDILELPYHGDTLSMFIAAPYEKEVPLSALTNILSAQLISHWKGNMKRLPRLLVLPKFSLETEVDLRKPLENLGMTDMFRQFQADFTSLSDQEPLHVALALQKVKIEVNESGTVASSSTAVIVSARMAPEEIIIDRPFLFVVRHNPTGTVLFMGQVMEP

rat PAI-1 = target: T3, rat PAI-1 (rat, UniProt P20961 24-402); test: SPR BIAcore T100, Antibody 08 on CM3 chip, PAI-1 as analyte, 25 C, n = 2
T3 construct: bought (US Biological)
T3 sequence: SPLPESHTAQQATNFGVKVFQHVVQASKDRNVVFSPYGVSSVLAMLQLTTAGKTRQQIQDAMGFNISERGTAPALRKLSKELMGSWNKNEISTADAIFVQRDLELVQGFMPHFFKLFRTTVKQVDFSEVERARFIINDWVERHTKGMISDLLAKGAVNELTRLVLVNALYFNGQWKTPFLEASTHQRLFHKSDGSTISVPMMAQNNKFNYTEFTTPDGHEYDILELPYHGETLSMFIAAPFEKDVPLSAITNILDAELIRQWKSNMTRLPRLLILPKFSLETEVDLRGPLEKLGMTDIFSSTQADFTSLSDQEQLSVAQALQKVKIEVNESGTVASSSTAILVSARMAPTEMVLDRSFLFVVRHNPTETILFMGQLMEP

[3] = target: T4, glycosylated active human PAI-1 produced by CHO cells (human, UniProt P05121 24-402, N-glycosylated (CHO-produced)); test: SPR BIAcore T100, Antibody 08 on CM3 chip, PAI-1 as analyte, 25 C, n = 5
T4 construct: also called hu glyco; human glycosylated PAI-1

cynomolgus PAI-1 [4] = target: T5, cynomolgus PAI-1 (cynomolgus, UniProt P05121 24-402 (human entry), limits assumed); test: as above
T5 construct: bacterially derived, made in house; also called cyno PAI-1

cynomolgus PAI-1 [5] = target: T5, cynomolgus PAI-1; test: SPR BIAcore T100, Antibody 08 on CM3 chip, PAI-1 as analyte, 37 C, n = 1
[6] = target: T4, glycosylated active human PAI-1 …; test: SPR BIAcore T100, Antibody 08 on CM3 chip, PAI-1 as analyte, 37 C, n = 2

B1: Antibody 08 (as coupled to the BIAcore chip; format not stated) (antibody, V domains shown)
VH: QVQLVQSGAEVKKPGSSVKVSCKASGGTFSSYAISWVRQAPGQGLEWMGGIIPTFGTANYAQKFQGRVTITADESTSTAYMELSSLRSEDTAVYYCARERRQWLEGHFDYWGRGTLVTVSS
VL: DIQMTQSPSTLSASVGDRVTITCRASEGIYHNLAWYQQKPGKAPKLLIYKASSLASGVPSRFSGSRSGTEFTLTISSLQPDDFATYYCQQYSNYPLTFGGGTKVEIK
notes: also called candidate antibody (Antibody 08)
[1]
  Kd: 7.4 nM
[2]
  Kd: 0.14 nM
Rat PAI-1
  Kd: 0.105 nM
[3]
  Kd: 6 pM
Cynomolgus PAI-1 [4]
  Kd: 0.013 nM
Cynomolgus PAI-1 [5]
  Kd: 0.013 nM
[6]
  Kd: 7 pM
